Data published in article PMC2762204 (Cancer research, 2009).
Positions count from the first letter of the chain named.

B1: FLAG-Sprouty2 2A (S111 and S120 to alanines) (natural protein, mouse, UniProt Q9QXV8 1-315, looked up)
chain: MEARAQSGNGSQPLLQTAHDSGRQRGEPDPRDALTQQVHVLSLDQIRAIRNTNEYTEGPTVVPRPGLKPAPRPSTQHKHERLHGLPEHRQPPRLQPSQVHSSRAPLSRSIATVSSGSRSATRTSTSSSSSEQRLLGPSFSHGPAAADGIIRVQPKSELKPGDVKPLSKDDLGLHAYRCEDCGKCKCKECTYPRPLPSDWICDKQCLCSAQNVIDYGTCVCCVKGLFYHCSNDDEDNCADNPCSCSQSHCCTRWSAMGVMSLFLPCLWCYLPAKGCLKLCQGCYDRVNRPGCRCKNSNTVCCKVPTVPPRNFEKPT
B2: FLAG-Sprouty2 6A (all six serine sites to alanines) (natural protein, mouse, UniProt Q9QXV8 1-315, looked up)
chain: B1 chain with S7A, S42A, S140A, S167A

Assays:
[1] = target: FLAG-Sprouty2 co-expressed with active MEK:EE (phosphorylated) (mouse) (UniProt Q9QXV8); test: pull-down
Myc-B-Raf wild-type = Myc-B-Raf wild-type (UniProt P15056 1-766); test: co-IP
Myc-B-Raf wild-type, sequence (P15056 whole entry): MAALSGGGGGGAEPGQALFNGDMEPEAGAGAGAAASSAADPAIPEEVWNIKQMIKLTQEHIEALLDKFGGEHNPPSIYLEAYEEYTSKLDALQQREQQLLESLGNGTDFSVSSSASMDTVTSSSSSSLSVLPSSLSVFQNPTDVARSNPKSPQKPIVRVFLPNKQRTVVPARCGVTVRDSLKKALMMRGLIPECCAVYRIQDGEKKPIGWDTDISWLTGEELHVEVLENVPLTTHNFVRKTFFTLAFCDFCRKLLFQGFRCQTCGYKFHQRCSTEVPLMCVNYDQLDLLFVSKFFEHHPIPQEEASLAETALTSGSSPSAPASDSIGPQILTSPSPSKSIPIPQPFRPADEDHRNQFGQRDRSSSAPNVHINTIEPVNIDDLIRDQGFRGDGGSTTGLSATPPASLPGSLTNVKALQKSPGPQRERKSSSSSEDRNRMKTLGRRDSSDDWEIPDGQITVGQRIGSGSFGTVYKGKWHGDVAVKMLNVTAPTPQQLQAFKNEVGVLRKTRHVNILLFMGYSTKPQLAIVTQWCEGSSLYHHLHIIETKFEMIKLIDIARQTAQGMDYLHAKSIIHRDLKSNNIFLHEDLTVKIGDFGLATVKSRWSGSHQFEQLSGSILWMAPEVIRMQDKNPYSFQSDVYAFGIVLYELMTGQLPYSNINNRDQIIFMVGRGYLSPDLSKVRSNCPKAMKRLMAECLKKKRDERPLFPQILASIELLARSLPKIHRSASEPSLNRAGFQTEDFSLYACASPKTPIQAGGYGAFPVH

Row | Molecule | percent reduction of binding against Sprouty2 expressed without MEK:EE [1] [%] | fold change of B-Raf binding against wild-type Sprouty2 (Myc-B-Raf wild-type) [fold]
1 | Recombinant human wild-type GST-B-Raf catalytic domain (domain or fragment) | 40 | 
2 | B1 |  | ~2
3 | B2 |  | ~3.5
